The target in one experiment is T1, human PMEL (Homo sapiens, UniProt P40967).
T1 sequence (P40967 25-661): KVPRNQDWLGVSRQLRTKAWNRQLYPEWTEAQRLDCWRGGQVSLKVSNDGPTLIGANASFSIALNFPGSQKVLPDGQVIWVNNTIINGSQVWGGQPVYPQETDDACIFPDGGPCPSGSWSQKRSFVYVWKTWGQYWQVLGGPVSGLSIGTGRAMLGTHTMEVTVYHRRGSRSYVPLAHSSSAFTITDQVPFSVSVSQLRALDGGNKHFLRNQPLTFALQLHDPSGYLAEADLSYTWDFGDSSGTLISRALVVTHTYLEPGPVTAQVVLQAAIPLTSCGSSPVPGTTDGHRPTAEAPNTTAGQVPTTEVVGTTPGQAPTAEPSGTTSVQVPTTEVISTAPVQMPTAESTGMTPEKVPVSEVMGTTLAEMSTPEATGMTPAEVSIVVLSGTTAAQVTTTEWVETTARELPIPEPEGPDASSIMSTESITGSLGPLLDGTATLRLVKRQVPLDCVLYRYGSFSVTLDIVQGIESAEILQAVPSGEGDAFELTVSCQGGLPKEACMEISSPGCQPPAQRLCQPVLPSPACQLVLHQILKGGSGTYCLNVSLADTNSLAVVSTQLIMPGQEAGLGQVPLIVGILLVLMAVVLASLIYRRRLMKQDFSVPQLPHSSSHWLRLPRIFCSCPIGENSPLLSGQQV
Kind of experiment: SPR epitope binning (competitive binding assay, Biacore T200). To be noted: FIG. 20B-20C. From the text:
SPR was used to assess epitope binning for anti-PMEL antibodies on a T200 Biacore instrument (catalog #28975001, GE Healthcare Life Sciences).
Surface Plasmon Resonance (SPR) is a technique to measure bimolecular interactions in real-time in a label free environment. Molecules are immobilized on a sensor surface over which a sample solution flows. The interaction between the immobilized molecule and the flowing sample causes a refractive index change. The refractive index change is an altering of the angle at which reduced intensity polarized light is reflected from the supporting glass plane. This angle change is caused by binding or dissociation of molecules from the sensor surface and is proportional to the mass of bound material and is recorded by the instrument in a sensorgram. […] From the association and dissociation event responses, an association rate (ka), a dissociation rate (kd) and an overall affinity (KD) are determined. For epitope binning, KDs are not determined.
In the first step, G1 LC 3J and 17A9 antibodies were directly immobilized onto a CM5 chip surface via Amine Coupling to achieve approximately 2000RU respectively on Fc2 and Fc3. […] The immobilized antibodies on Fc2 and Fc3 are the base antibodies in the experiment […]
The data was analyzed using the Biacore T200 Evaluation Software version 3.0.

The test system of the next experiment is PMEL17. Briefly: Cross-reactivity (cross-specificity profile) of anti-PMEL17 IgGs in dose response FACS. The experiment is classed as binding. Also on record: key: h/c/r/m: human/cyno/rat/mouse; h/c/r: human/cyno/rat; h/c/(m): human/cyno/mouse; h/c: human/cyno. The note with it: h human, c cyno, r rat, m mouse. On the procedure: (§1) The cross-specificity of the IgGs was evaluated in does response FACS on G-361 (human melanoma), HKB11-cyno-PMEL17, HKB11-rat PMEL17 and B16-F10 (mouse PMEL17 expressing melanoma) (Table 3). Testing on G-361 was performed using a detection antibody labelled to PE. In contrast, an Alexa-Fluor labelled detection antibody had to be used for testing the candidates on the other cell lines so as to reach detectable signals.
IgGs were classified into several epitope groups according to their cross-specificity profiles.

The target of another experiment is T2, human PMEL17 (Homo sapiens, UniProt P40967).
T2 construct: G-361 melanoma cell line expresses human PMEL17 at a lower level compared to the HKB11-human PMEL17 overexpressing cell line; endogenous in cells; host or cells: G-361 (human melanoma)
T2 sequence (P40967 25-661): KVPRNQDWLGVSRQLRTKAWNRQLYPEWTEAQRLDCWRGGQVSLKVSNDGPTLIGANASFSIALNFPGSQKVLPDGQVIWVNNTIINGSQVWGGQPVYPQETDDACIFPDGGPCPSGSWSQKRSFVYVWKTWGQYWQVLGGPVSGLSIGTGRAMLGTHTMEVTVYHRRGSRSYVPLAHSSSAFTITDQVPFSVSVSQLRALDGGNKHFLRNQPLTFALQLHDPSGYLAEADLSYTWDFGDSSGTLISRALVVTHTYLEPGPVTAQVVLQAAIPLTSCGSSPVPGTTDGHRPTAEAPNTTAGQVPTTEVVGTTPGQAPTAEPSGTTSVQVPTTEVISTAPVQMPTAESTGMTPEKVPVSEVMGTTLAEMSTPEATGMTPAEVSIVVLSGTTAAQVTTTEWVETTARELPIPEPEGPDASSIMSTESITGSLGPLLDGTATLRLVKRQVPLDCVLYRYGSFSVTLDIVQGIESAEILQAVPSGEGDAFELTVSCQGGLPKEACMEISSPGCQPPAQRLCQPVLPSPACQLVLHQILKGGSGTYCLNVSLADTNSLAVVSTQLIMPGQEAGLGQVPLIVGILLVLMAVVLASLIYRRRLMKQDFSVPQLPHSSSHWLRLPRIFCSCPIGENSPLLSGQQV
Briefly: Apparent affinity by FACS titration of IgGs on G-361 melanoma cell line. In kind it is binding. The note with it: G-361, PE-labelled detection antibody; read-out: FACS EC50 (nM) G-361 (PE). The protocol: (§2) Purified IgGs were titrated on a variety of PMEL17 expressing and PMEL17 non expressing cell lines (for control) to determine EC50 values. Cells were harvested using Accutase, adjusted to ˜4×10^6 cells/ml into FACS buffer (PBS, 3% FCS and 0.02% Na-Azide) and kept on ice to avoid internalization. 15 μl of cell suspension/well were transferred into 384 well V-bottom plates (Greiner, Cat #781280) and incubated with 15 μl of IgGs at different concentrations (most commonly from 200 to 3.5×10−3 nM) for 1 hour at 4° C., gently shaking. Following incubation, cells were washed three times with FACS buffer. After each washing step, cells were centrifuged (250×g, 5 min, 4° C.) and carefully resuspended. 15 μl of detection antibody conjugated to PE (PE-conjugated goat anti-human IgG, F(ab′)2 fragment specific, 1:150 in FACS buffer; Jackson Immuno Research, #109-116-097) or Alexa Fluor (Alexa Fluor-conjugated goat anti-human IgG, F(ab′)2 fragment specific, 1:150 in FACS buffer; Jackson Immuno Research, #109-606-097) were added and samples were incubated for 45 minutes to 1 hour on ice in the dark, gently shaking. After 3 washing steps, cells were resuspended in 30 μl of FACS buffer and samples were measured using the IntelliCyt HTFC device. EC50 values were calculated using the Graphpad Prism software. G-361 melanoma cell line expresses human PMEL17 at a lower level compared to the HKB11-human PMEL17 overexpressing cell line, and therefore allows a more precise ranking of the clones depending on their apparent affinity on cells.
(§3) The cross-specificity of the IgGs was evaluated in does response FACS on G-361 (human melanoma), HKB11-cyno-PMEL17, HKB11-rat PMEL17 and B16-F10 (mouse PMEL17 expressing melanoma) (Table 3). […]

In the next experiment the test system is rat PMEL17. Briefly: Apparent affinity by FACS titration of IgGs on HKB11-rat PMEL17 cells. The experiment is classed as binding. The note with it: Alexa Fluor. The protocol:
Purified IgGs were titrated on a variety of PMEL17 expressing and PMEL17 non expressing cell lines (for control) to determine EC50 values. Cells were harvested using Accutase, adjusted to ˜4×10^6 cells/ml into FACS buffer (PBS, 3% FCS and 0.02% Na-Azide) and kept on ice to avoid internalization. 15 μl of cell suspension/well were transferred into 384 well V-bottom plates (Greiner, Cat #781280) and incubated with 15 μl of IgGs at different concentrations (most commonly from 200 to 3.5×10−3 nM) for 1 hour at 4° C., gently shaking. Following incubation, cells were washed three times with FACS buffer. After each washing step, cells were centrifuged (250×g, 5 min, 4° C.) and carefully resuspended. […] After 3 washing steps, cells were resuspended in 30 μl of FACS buffer and samples were measured using the IntelliCyt HTFC device. EC50 values were calculated using the Graphpad Prism software. […]
as §3

A further experiment deals with T3, mouse PMEL17 (Mus musculus, UniProt Q60696).
T3 construct: B16-F10 (mouse PMEL17 expressing melanoma); endogenous in cells; host or cells: B16-F10 (mouse melanoma)
T3 sequence (Q60696 24-626): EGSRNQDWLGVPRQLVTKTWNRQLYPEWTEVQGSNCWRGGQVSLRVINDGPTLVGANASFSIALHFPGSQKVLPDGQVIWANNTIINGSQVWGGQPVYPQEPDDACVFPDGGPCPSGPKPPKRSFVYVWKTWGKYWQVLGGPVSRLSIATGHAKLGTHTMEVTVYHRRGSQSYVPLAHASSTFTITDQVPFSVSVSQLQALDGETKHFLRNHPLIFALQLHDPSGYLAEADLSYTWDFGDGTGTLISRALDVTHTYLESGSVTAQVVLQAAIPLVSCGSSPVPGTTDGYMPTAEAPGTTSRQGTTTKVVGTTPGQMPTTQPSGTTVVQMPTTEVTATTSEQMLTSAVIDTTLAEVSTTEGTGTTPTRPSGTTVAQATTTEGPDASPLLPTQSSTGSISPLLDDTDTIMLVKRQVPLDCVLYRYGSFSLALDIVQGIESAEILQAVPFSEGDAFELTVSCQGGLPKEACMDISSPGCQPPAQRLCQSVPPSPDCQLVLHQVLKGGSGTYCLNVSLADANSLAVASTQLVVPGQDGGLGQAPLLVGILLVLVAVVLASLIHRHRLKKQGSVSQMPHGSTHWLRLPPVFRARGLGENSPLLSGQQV
Kind of experiment: Apparent affinity by FACS titration of IgGs on B16-F10 melanoma cells. In kind it is binding. The note with it: Alexa Fluor. On the procedure: as §2, §1

The subject of another experiment is UACC-62. Kind of experiment: FACS titration of IgGs on UACC-62 cells. In kind it is binding. The note with it: UACC-62, PE-labelled detection antibody. On the procedure:
as §2

The values that follow come from patent US11779649B2, “Antibodies to PMEL17 and conjugates thereof” (Novartis AG, priority 2018, dated 2023).

B1: G1 LC 3J: anti-PMEL antibody G1 with 3J light chain (antibody, V domains shown)
VH: QVQLVQSGAEVKKPGSSVKVSCKASGGTFSDYAITWVRQAPGQGLEWMGGIIPIFGTANYAQKFQGRVTITADESTSTAYMELSSLRSEDTAVYYCAREGGLLTDISYSRYWFAYWGQGTLVTVSS
VL: SYELTQPLSVSVALGQTARITCSGDALRDKFVYWYQQKPGQAPVLVIYDDNNRPSGIPERFSGSNSGNTATLTISRAQAGDEADYYCQSWDHSYSLVVFGGGTKLTVL
Consider B1, for which, in the experiment with human PMEL, the epitope binning result was “bind to different epitopes”.

B2: Y010417: anti-PMEL17 antibody (IgG) (antibody, V domains shown)
VH: EVQLVQSGAEVKKPGESLKISCKGSGYSFTSYWIGWVRQMPGKGLEWMGIIYPGDSDTRYSPSFQGQVTISADKSISTAYLQWSSLKASDTAMYYCARGSSAASGLSGDLWGQGTLVTVSS
VL: DIQMTQSPSSLSASVGDRVTITCRASQSISSYLNWYQQKPGKAPKLLIYAASSLQSGVPSRFSGSGSGTDFTLTISSLQPEDFATYYCQQDYYSPFTFGQGTKVEIK
Regarding B2, the “Cross spe profile (based on C14 detection ab)” value in the experiment on PMEL17 is listed as “h/c”. Further, the values for the EC50 with human PMEL17, in the experiment on rat PMEL17 and with mouse PMEL17 were 2.8 nM, more than 100 nM and more than 100 nM, respectively. For the same molecule, the “UACC-62 (PE)” value in the experiment on UACC-62 was “Negative”.
